Experimental data as given in US20210388110A1 (published 2021).

Molecular target: T1, soluble human GPC3 (human, UniProt P51654 25-563, limits assumed)
T1 construct: soluble human GPC3 as analyte; also called glypican 3
Assay: SPR (Biacore), soluble human GPC3

T1 sequence (P51654 other isoform, or with tags, fused parts or gaps limits assumed, form in doubt): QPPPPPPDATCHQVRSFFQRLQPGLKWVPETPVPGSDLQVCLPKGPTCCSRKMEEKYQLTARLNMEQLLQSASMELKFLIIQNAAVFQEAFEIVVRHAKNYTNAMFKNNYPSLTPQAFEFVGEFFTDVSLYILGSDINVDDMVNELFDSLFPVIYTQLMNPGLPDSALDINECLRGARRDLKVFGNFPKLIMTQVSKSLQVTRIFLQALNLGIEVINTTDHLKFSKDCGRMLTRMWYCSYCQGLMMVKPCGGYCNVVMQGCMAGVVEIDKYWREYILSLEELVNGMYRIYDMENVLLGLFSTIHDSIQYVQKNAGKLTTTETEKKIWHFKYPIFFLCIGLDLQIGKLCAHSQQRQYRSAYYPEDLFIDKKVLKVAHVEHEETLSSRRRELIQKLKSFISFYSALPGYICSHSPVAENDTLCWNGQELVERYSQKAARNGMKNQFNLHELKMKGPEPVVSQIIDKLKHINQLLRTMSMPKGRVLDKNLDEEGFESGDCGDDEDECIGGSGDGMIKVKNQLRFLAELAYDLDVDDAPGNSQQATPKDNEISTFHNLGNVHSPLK

Row | Kd | Binder
1 | 0.0087 nM | H0610-G1dh/none-Hi-Kn010G3/L0265-k0 (antibody, human IgG1, kappa, single-arm (one Fab)) heavy: not shown EPKSSDKTHTCPPCPAPELLGGPSVFLFPPKPKDTLMISRTPEVTCVVVDVSHEDPEVKFNWYVDGVEVHNAKTKPREEQYNSTYRVVSVLTVLHQDWLNGKEYKCKVSNKALPAPIEKTISKAKGQPREPQVCTLPPSRDELTKNQVSLWCLVKGFYPSDIAVEWESNGQPENNYKTTPPVLDSDGSFFLYSKLTVDKSRWQQGNVFSCSVMHEALHNRYTQKSLSLSP light: DIVMTQSPLSLPVTPGEPASISCRSSQSPVHSNRNTYIQWYQQKPGQAPRLLIYKVSNRFSGVPDRFSGSGSGTDFTLKISRVEAEDVGVYYCAQGTQVPYTFGQGTKLEIKRTVAAPSVFIFPPSDEQLKSGTASVVCLLNNFYPREAKVQWKVDNALQSGNSQESVTEQDSKDSTYSLSSTLTLSKADYEKHKVYACEVTHQGLSSPVTKSFNRGEC
2 | 0.0169 nM | H0610-G1dh/none-Hi-Kn010G3/L0268-k0 (antibody, human IgG1, kappa, single-arm (one Fab)) heavy: not shown EPKSSDKTHTCPPCPAPELLGGPSVFLFPPKPKDTLMISRTPEVTCVVVDVSHEDPEVKFNWYVDGVEVHNAKTKPREEQYNSTYRVVSVLTVLHQDWLNGKEYKCKVSNKALPAPIEKTISKAKGQPREPQVCTLPPSRDELTKNQVSLWCLVKGFYPSDIAVEWESNGQPENNYKTTPPVLDSDGSFFLYSKLTVDKSRWQQGNVFSCSVMHEALHNRYTQKSLSLSP light: DIVMTQSPLSLPVTPGEPASISCRSSQSPVHSNRNTYIQWYQQKPGQAPRLLIYKVSNRFSGVPDRFSGSGSGTDFTLKISRVEAEDVGVYYCVQGTQVPYTFGQGTKLEIKRTVAAPSVFIFPPSDEQLKSGTASVVCLLNNFYPREAKVQWKVDNALQSGNSQESVTEQDSKDSTYSLSSTLTLSKADYEKHKVYACEVTHQGLSSPVTKSFNRGEC
3 | 0.459 nM | H0610-G1dh/none-Hi-Kn010G3/L0269-k0 (antibody, human IgG1, kappa, single-arm (one Fab)) heavy: not shown EPKSSDKTHTCPPCPAPELLGGPSVFLFPPKPKDTLMISRTPEVTCVVVDVSHEDPEVKFNWYVDGVEVHNAKTKPREEQYNSTYRVVSVLTVLHQDWLNGKEYKCKVSNKALPAPIEKTISKAKGQPREPQVCTLPPSRDELTKNQVSLWCLVKGFYPSDIAVEWESNGQPENNYKTTPPVLDSDGSFFLYSKLTVDKSRWQQGNVFSCSVMHEALHNRYTQKSLSLSP light: DIVMTQSPLSLPVTPGEPASISCRSSQSPVHSNRNTYIQWYQQKPGQAPRLLIYKVSNRFSGVPDRFSGSGSGTDFTLKISRVEAEDVGVYYCGQGTQVPYTFGQGTKLEIKRTVAAPSVFIFPPSDEQLKSGTASVVCLLNNFYPREAKVQWKVDNALQSGNSQESVTEQDSKDSTYSLSSTLTLSKADYEKHKVYACEVTHQGLSSPVTKSFNRGEC
4 | 3.81 nM | H0610-G1dh/none-Hi-Kn010G3/TR01L009-k0 (antibody, human IgG1, kappa, single-arm (one Fab)) heavy: not shown EPKSSDKTHTCPPCPAPELLGGPSVFLFPPKPKDTLMISRTPEVTCVVVDVSHEDPEVKFNWYVDGVEVHNAKTKPREEQYNSTYRVVSVLTVLHQDWLNGKEYKCKVSNKALPAPIEKTISKAKGQPREPQVCTLPPSRDELTKNQVSLWCLVKGFYPSDIAVEWESNGQPENNYKTTPPVLDSDGSFFLYSKLTVDKSRWQQGNVFSCSVMHEALHNRYTQKSLSLSP light: DIVMTQSPLSLPVTPGEPASISCRSSQSLVHSNRNTYLHWYLQKPGQSPQLLIYKVSNRFRGVPDRFSGSGSGTDFTLKISRVEAEDVGVYYCGQGTQVPYTFGQGTKLEIKRTVAAPSVFIFPPSDEQLKSGTASVVCLLNNFYPREAKVQWKVDNALQSGNSQESVTEQDSKDSTYSLSSTLTLSKADYEKHKVYACEVTHQGLSSPVTKSFNRGEC
5 | 2.92 nM | H0610-G1dh/none-Hi-Kn010G3/TR01L010-k0 (antibody, human IgG1, kappa, single-arm (one Fab)) heavy: not shown EPKSSDKTHTCPPCPAPELLGGPSVFLFPPKPKDTLMISRTPEVTCVVVDVSHEDPEVKFNWYVDGVEVHNAKTKPREEQYNSTYRVVSVLTVLHQDWLNGKEYKCKVSNKALPAPIEKTISKAKGQPREPQVCTLPPSRDELTKNQVSLWCLVKGFYPSDIAVEWESNGQPENNYKTTPPVLDSDGSFFLYSKLTVDKSRWQQGNVFSCSVMHEALHNRYTQKSLSLSP light: DIVMTQSPLSLPVTPGEPASISCRSSQSLVHSNRNTYLHWYQQKPGQAPRLLIYKVSNRFRGVPDRFSGSGSGTDFTLKISRVEAEDVGVYYCGQGTQVPYTFGQGTKVEIERTVAAPSVFIFPPSDEQLKSGTASVVCLLNNFYPREAKVQWKVDNALQSGNSQESVTEQDSKDSTYSLSSTLTLSKADYEKHKVYACEVTHQGLSSPVTKSFNRGEC
6 | 0.179 nM | H0610-G1dh/none-Hi-Kn010G3/L0267-k0 (antibody, human IgG1, kappa, single-arm (one Fab)) heavy: not shown EPKSSDKTHTCPPCPAPELLGGPSVFLFPPKPKDTLMISRTPEVTCVVVDVSHEDPEVKFNWYVDGVEVHNAKTKPREEQYNSTYRVVSVLTVLHQDWLNGKEYKCKVSNKALPAPIEKTISKAKGQPREPQVCTLPPSRDELTKNQVSLWCLVKGFYPSDIAVEWESNGQPENNYKTTPPVLDSDGSFFLYSKLTVDKSRWQQGNVFSCSVMHEALHNRYTQKSLSLSP light: DIVMTQSPLSLPVTPGEPASISCRPSQSPVHSNRNTYLHWYQQKPGQAPRLLIYKVSNRFSGVPDRFSGSGSGTDFTLKISRVEAEDVGVYYCVQGTQVPYTFGQGTKLEIKRTVAAPSVFIFPPSDEQLKSGTASVVCLLNNFYPREAKVQWKVDNALQSGNSQESVTEQDSKDSTYSLSSTLTLSKADYEKHKVYACEVTHQGLSSPVTKSFNRGEC
7 | 0.00827 nM | H0610-G1dh/none-Hi-Kn010G3/TR01L017-k0 (antibody, human IgG1, kappa, single-arm (one Fab)) heavy: not shown EPKSSDKTHTCPPCPAPELLGGPSVFLFPPKPKDTLMISRTPEVTCVVVDVSHEDPEVKFNWYVDGVEVHNAKTKPREEQYNSTYRVVSVLTVLHQDWLNGKEYKCKVSNKALPAPIEKTISKAKGQPREPQVCTLPPSRDELTKNQVSLWCLVKGFYPSDIAVEWESNGQPENNYKTTPPVLDSDGSFFLYSKLTVDKSRWQQGNVFSCSVMHEALHNRYTQKSLSLSP light: DIVMTQSPLSLPVTPGEPASISCRSSQSPVHSNRNTYIQWYLQKPGQSPQLLIYKVSNRFSGVPDRFSGSGSGTDFTLKISRVEAEDVGVYYCYQGTQVPYTFGQGTKLEIKRTVAAPSVFIFPPSDEQLKSGTASVVCLLNNFYPREAKVQWKVDNALQSGNSQESVTEQDSKDSTYSLSSTLTLSKADYEKHKVYACEVTHQGLSSPVTKSFNRGEC
8 | 1.08 nM | H0610-G1dh/none-Hi-Kn010G3/TR01L016-k0 (antibody, human IgG1, kappa, single-arm (one Fab)) heavy: not shown EPKSSDKTHTCPPCPAPELLGGPSVFLFPPKPKDTLMISRTPEVTCVVVDVSHEDPEVKFNWYVDGVEVHNAKTKPREEQYNSTYRVVSVLTVLHQDWLNGKEYKCKVSNKALPAPIEKTISKAKGQPREPQVCTLPPSRDELTKNQVSLWCLVKGFYPSDIAVEWESNGQPENNYKTTPPVLDSDGSFFLYSKLTVDKSRWQQGNVFSCSVMHEALHNRYTQKSLSLSP light: DIVMTQSPLSLPVTPGEPASISCRSSQSPVHSNRNTYLHWYLQKPGQSPQLLIYKVSNRFSGVPDRFSGSGSGTDFTLKISRVEAEDVGVYYCYQGTQVPYTFGQGTKLEIKRTVAAPSVFIFPPSDEQLKSGTASVVCLLNNFYPREAKVQWKVDNALQSGNSQESVTEQDSKDSTYSLSSTLTLSKADYEKHKVYACEVTHQGLSSPVTKSFNRGEC
9 | 0.213 nM | H0610-G1dh/none-Hi-Kn010G3/L0266-k0 (antibody, human IgG1, kappa, single-arm (one Fab)) heavy: not shown EPKSSDKTHTCPPCPAPELLGGPSVFLFPPKPKDTLMISRTPEVTCVVVDVSHEDPEVKFNWYVDGVEVHNAKTKPREEQYNSTYRVVSVLTVLHQDWLNGKEYKCKVSNKALPAPIEKTISKAKGQPREPQVCTLPPSRDELTKNQVSLWCLVKGFYPSDIAVEWESNGQPENNYKTTPPVLDSDGSFFLYSKLTVDKSRWQQGNVFSCSVMHEALHNRYTQKSLSLSP light: DIVMTQSPLSLPVTPGEPASISCRSSQPPVHSNRNTYLHWYQQKPGQAPRLLIYKVSNRFSGVPDRFSGSGSGTDFTLKISRVEAEDVGVYYCVQGTQVPYTFGQGTKLEIKRTVAAPSVFIFPPSDEQLKSGTASVVCLLNNFYPREAKVQWKVDNALQSGNSQESVTEQDSKDSTYSLSSTLTLSKADYEKHKVYACEVTHQGLSSPVTKSFNRGEC
10 | 3.48 nM | H0610-G1dh/none-Hi-Kn010G3/TR01L008-k0 (antibody, human IgG1, kappa, single-arm (one Fab)) heavy: not shown EPKSSDKTHTCPPCPAPELLGGPSVFLFPPKPKDTLMISRTPEVTCVVVDVSHEDPEVKFNWYVDGVEVHNAKTKPREEQYNSTYRVVSVLTVLHQDWLNGKEYKCKVSNKALPAPIEKTISKAKGQPREPQVCTLPPSRDELTKNQVSLWCLVKGFYPSDIAVEWESNGQPENNYKTTPPVLDSDGSFFLYSKLTVDKSRWQQGNVFSCSVMHEALHNRYTQKSLSLSP light: DIVMTQSPLSLPVTPGEPASISCQASESLVHSNRNTYLHWYQQKPGQAPRLLIYKVSNRFRGVPDRFSGSGSGTDFTLKISRVEAEDVGVYYCGQGTQVPYTFGQGTKLEIKRTVAAPSVFIFPPSDEQLKSGTASVVCLLNNFYPREAKVQWKVDNALQSGNSQESVTEQDSKDSTYSLSSTLTLSKADYEKHKVYACEVTHQGLSSPVTKSFNRGEC
11 | 2.16 nM | H0610-G1dh/none-Hi-Kn010G3/TR01L015-k0 (antibody, human IgG1, kappa, single-arm (one Fab)) heavy: not shown EPKSSDKTHTCPPCPAPELLGGPSVFLFPPKPKDTLMISRTPEVTCVVVDVSHEDPEVKFNWYVDGVEVHNAKTKPREEQYNSTYRVVSVLTVLHQDWLNGKEYKCKVSNKALPAPIEKTISKAKGQPREPQVCTLPPSRDELTKNQVSLWCLVKGFYPSDIAVEWESNGQPENNYKTTPPVLDSDGSFFLYSKLTVDKSRWQQGNVFSCSVMHEALHNRYTQKSLSLSP light: DIVMTQSPLSLPVTPGEPASISCRSSQSPVHSNRNTYLHWYLQKPGQSPQLLIYKVSNRFSGVPDRFSGSGSGTDFTLKISRVEAEDVGVYYCGQGTQVPYTFGQGTKLEIKRTVAAPSVFIFPPSDEQLKSGTASVVCLLNNFYPREAKVQWKVDNALQSGNSQESVTEQDSKDSTYSLSSTLTLSKADYEKHKVYACEVTHQGLSSPVTKSFNRGEC
12 | 4.02 nM | H0610-G1dh/none-Hi-Kn010G3/TR01L011-k0 (antibody, human IgG1, kappa, single-arm (one Fab)) heavy: not shown EPKSSDKTHTCPPCPAPELLGGPSVFLFPPKPKDTLMISRTPEVTCVVVDVSHEDPEVKFNWYVDGVEVHNAKTKPREEQYNSTYRVVSVLTVLHQDWLNGKEYKCKVSNKALPAPIEKTISKAKGQPREPQVCTLPPSRDELTKNQVSLWCLVKGFYPSDIAVEWESNGQPENNYKTTPPVLDSDGSFFLYSKLTVDKSRWQQGNVFSCSVMHEALHNRYTQKSLSLSP light: DIVMTQSPLSLPVTPGEPASISCQASESLVHSNRNTYLHWYQQKPGQAPRLLIYKVSNRFRGVPDRFSGSGSGTDFTLKISRVEAEDVGVYYCGQGTQVPYTFGQGTKVEIERTVAAPSVFIFPPSDEQLKSGTASVVCLLNNFYPREAKVQWKVDNALQSGNSQESVTEQDSKDSTYSLSSTLTLSKADYEKHKVYACEVTHQGLSSPVTKSFNRGEC
13 | 4.25 nM | H0610-G1dh/none-Hi-Kn010G3/TR01L012-k0 (antibody, human IgG1, kappa, single-arm (one Fab)) heavy: not shown EPKSSDKTHTCPPCPAPELLGGPSVFLFPPKPKDTLMISRTPEVTCVVVDVSHEDPEVKFNWYVDGVEVHNAKTKPREEQYNSTYRVVSVLTVLHQDWLNGKEYKCKVSNKALPAPIEKTISKAKGQPREPQVCTLPPSRDELTKNQVSLWCLVKGFYPSDIAVEWESNGQPENNYKTTPPVLDSDGSFFLYSKLTVDKSRWQQGNVFSCSVMHEALHNRYTQKSLSLSP light: DIVMTQSPLSLPVTPGEPASISCRSSQSLVHSNRNTYLHWYLQKPGQSPQLLIYKVSNRFRGVPDRFSGSGSGTDFTLKISRVEAEDVGVYYCGQGTQVPYTFGQGTKVEIERTVAAPSVFIFPPSDEQLKSGTASVVCLLNNFYPREAKVQWKVDNALQSGNSQESVTEQDSKDSTYSLSSTLTLSKADYEKHKVYACEVTHQGLSSPVTKSFNRGEC
